Source: patent US20260224629A1 (Memorial Sloan Kettering, published 2026)

Target: T1, murine DLL3 (murine, UniProt O88516 33-592)
T1 construct: whole, on cells; Expressed endogenously on the murine SCLC (mSCLC) cell line; also called mDLL3; mouse DLL3
T1 sequence (looked up): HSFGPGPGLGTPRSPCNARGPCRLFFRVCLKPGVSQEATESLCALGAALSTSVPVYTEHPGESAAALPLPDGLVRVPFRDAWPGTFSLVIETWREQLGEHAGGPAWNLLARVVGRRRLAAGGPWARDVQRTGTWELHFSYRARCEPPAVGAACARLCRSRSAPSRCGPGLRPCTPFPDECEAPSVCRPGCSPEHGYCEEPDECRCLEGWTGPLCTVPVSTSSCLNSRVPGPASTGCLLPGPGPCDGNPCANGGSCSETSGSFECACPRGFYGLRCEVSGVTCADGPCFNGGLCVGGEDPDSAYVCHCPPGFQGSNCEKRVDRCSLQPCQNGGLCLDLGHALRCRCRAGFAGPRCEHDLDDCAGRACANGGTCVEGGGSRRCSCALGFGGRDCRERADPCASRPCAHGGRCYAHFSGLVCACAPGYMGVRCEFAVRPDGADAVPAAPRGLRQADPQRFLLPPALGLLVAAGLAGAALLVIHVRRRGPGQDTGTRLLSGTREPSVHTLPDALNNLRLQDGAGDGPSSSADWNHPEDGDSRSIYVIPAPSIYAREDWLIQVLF
Test: told in words; shown by lysis and IFN-γ release of CAR T cells in coculture with mSCLC cells that express murine DLL3
Procedure: The CAR consists of the SC16.8 single-chain variable fragment (scFv) and murine CD28 and CD3ζ domains. FIG. 2B measures the IFN-γ levels in supernatant of 24-hour coculture of murine CAR T cells with or without mSCLC cells. **P<0.01, ****P<0.0001 (2-way ANOVA, n=2). FIG. 2C depicts the survival of mice with metastatic mSCLC that were treated with the indicated doses of SC16.8m28mz CAR T cells (day 7) with or without 50 mg/kg cyclophosphamide pretreatment (day 6). **P<0.01 (log-rank test, n=4-6). FIG. 2D is a schematic of CAR design with SC16.8 scFv, murine CD28 and CD3ζ signaling domains, and the murine 1112 fusion transgene or murine 1118 transgene. IRES, internal ribosome entry site. FIG. 2E illustrates IFN-γ production by the respective CAR T cells in the absence and presence of mSCLC cells. *P<0.05, **P<0.01, ***P<0.001, ****P<0.0001 (2-way ANOVA and Student's t test, n=2-3). FIG. 2F depicts a luciferase killing assay with SC16.8 CAR T cells that express IL-12, IL-18, or no cytokine and 4H11 CAR T cells as negative control (n=3). FIGS. 2G and 2H depict serum IFN-γ and TNF-α levels (n=12-15) (2G) and circulating CAR T cells (n=5) (2H) in the blood of mice collected 3 days after treatment with the indicated CAR T cells. **P<0.01, ***P<0.001, ****P<0.0001 (1-way ANOVA). […] FIG. 2J illustrates the survival of mice in FIG. 2I. *P<0.05, ****P<0.0001 (log-rank test). […]

B1: SC16.8m28mz CAR (SC16.8 scFv with Flag-tag, murine CD28 transmembrane and intracellular domain and murine CD3zeta intracellular domain, on murine T cells) (scFv, V domains shown)
VH: QAQLQQSGAELVRPGTSVKVSCKASGYAFTNYLIEWVKQRPGQGLEWIGVINPGTGGTNYNENFKGKATLTADKSSSTAYMQLSSLTSDDSAVYFCARSPYDYHEGAMDYWGQGTSVTVSS
VL: EIQMTQSPSSMSASLGDRITITCQATQDIVKNLNWYQQKPGKPPSFLIYYAIELAEGVPSRFSGSGSGSDYSLTISNLESEDFADYYCLQFYEFPFTFGAGTKLELK
notes: Tested as a membrane CAR on transduced murine T cells; VH and VL are joined as an scFv; also called SC16.8 CAR (murine CAR T cells); the presently disclosed CAR
B1: binds.
